Results taken from paper PMC5517500, “Cyclic di-GMP regulates Mycobacterium tuberculosis resistance to ethionamide” (Scientific Reports, 2017).

How the values were obtained:
[1] = biological target: T1, Ycdc (Escherichia coli, UniProt P0ACU2); test: incubation with bio-c-di-GMP (Supplementary Fig. S4b); format: binding
T1 construct: gene rutR
T1 sequence (P0ACU2 1-212): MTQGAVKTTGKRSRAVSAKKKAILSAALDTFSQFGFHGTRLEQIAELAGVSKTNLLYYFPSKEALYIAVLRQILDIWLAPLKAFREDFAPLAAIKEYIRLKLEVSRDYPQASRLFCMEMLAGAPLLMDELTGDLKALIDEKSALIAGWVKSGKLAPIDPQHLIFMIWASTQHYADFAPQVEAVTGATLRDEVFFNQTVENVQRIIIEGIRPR

[2] = biological target: T2, EthR (Mycobacterium tuberculosis H37Rv, UniProt P9WMC1 1-216); test: BLI; no c-di-GMP; conditions: protein: recombinant; tags: 6xHis (E. coli, pET28a) or GST (yeast); chain copies: 2; label: biotin on second strand (Ms6440pr)
T2 sequence (P9WMC1 whole entry): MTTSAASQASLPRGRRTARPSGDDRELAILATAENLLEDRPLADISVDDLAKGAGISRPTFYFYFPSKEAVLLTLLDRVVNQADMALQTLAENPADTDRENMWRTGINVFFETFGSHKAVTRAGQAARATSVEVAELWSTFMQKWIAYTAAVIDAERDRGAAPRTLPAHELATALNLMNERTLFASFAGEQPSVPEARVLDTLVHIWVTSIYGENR

[3] = biological target: T2, EthR; test: BLI; 50 uM c-di-GMP; conditions: protein: recombinant; tags: 6xHis (E. coli, pET28a) or GST (yeast); chain copies: 2; label: biotin on second strand (Ms6440pr)

Nc1nc2c(ncn2[C@@H]2O[C@@H]3COP(=O)(O)O[C@H]4[C@@H](O)[C@H](n5cnc6c(=O)[nH]c(N)nc65)O[C@@H]4COP(=O)(O)O[C@H]3[C@H]2O)c(=O)[nH]1 [c-di-GMP]
incubation with bio-c-di-GMP (Supplementary Fig. S4b) [1]: we incubated Escherichia coli Ycdc with bio-c-di-GMP, the result clearly showed that they bind each other

B1: etha promoter DNA (dsDNA)
DNA 1: CGGTCATGGATCCACGCTATCAACGTAATGTCGAGGCCGTCAACGAGATGTCGACACTATCGA
DNA 2: CTGACTGGCCGCGGAGGTGGTCACCCTGGCAGCTTACTACGTGTCGATAGATGTCGACATCTCGTTGACGG
Kd [2]: 1340 nM
Kd [3]: 1120 nM
